Patent CN116710484A (MYLINGENE INC, dated 2023)

Tests used:
[1] = biological target: T1, human recombinant WARS1 protein (tryptophanyl-tRNA synthetase 1) (human, UniProt P23381 1-471, limits assumed); assay: SPR, Biacore T200, CM5 chip
T1 construct: Recombinant protein; also called 人WARS1; 人重组蛋白
T1 sequence (looked up): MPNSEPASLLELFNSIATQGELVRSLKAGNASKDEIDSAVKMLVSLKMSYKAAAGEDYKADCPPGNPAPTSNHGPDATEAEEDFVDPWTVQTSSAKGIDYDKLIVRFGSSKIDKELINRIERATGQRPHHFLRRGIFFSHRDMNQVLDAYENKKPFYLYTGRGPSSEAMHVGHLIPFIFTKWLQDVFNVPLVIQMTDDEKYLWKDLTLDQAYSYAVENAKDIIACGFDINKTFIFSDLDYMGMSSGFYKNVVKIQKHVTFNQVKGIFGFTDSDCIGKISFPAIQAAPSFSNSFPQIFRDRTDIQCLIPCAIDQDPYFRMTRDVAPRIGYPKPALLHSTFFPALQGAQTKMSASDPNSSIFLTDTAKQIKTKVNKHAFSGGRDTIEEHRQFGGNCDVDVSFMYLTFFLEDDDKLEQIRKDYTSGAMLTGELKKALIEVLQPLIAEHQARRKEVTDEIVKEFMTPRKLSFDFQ

[2] = biological target: T2, mouse recombinant WARS1 protein (mouse, UniProt P32921 1-481, limits assumed); assay: SPR, Biacore T200, CM5 chip
T2 construct: Recombinant protein; also called 小鼠WARS1; 小鼠重组蛋白
T2 sequence (looked up): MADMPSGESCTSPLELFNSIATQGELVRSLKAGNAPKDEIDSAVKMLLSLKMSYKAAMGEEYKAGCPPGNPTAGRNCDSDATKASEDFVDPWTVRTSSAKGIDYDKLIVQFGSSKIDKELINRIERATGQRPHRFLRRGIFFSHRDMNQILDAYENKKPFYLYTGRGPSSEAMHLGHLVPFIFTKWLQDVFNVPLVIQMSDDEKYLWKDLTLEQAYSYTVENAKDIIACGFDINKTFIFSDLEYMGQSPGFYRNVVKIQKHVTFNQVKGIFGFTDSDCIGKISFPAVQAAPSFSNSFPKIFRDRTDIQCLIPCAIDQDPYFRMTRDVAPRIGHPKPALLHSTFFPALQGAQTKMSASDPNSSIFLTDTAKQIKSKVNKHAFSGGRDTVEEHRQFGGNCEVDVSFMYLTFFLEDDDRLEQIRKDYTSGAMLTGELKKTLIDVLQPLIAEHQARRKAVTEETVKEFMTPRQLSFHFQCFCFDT

Kd [1]: ~0.2 nM
Kd [2]: ~3.76 nM
B1: GKB101 (antibody, V domains shown)
VH: EVQLLESGGGLVQPGGSLRLSCAASGFTFSSYDMSWVRQAPGKGLEWVSAISSGGSSIYYADSVKGRFTISRDNSKNTLYLQMNSLRAEDTAVYYCARDVAWDMLGDFDYWGQGTLVTVSS
VL: QSVLTQPPSASGTPGQRVTISCTGSSSNIGSNYVYWYQQLPGTAPKLLIYANSHRPSGVPDRFSGSKSGTSASLAISGLRSEDEADYYCGAWDDSLSAYVFGGGTKLTV
notes: also called WARS1特异性抗体; 抗WARS1抗体
